Assay [1] has as its target HCV E1E2 complex, isolate H77 (genotype 1a) (hepatitis C virus genotype 1a, isolate …, UniProt P27958 192-383; P27958 384-746). The assay is described as follows: Fab screen after panning on E1E2 (H77).
Assay [2] deals with HCV E1E2 antigen, isolate CH35 (hepatitis C virus, isolate CH35). The assay is described as follows: ELISA, Fab on E1E2 antigen.
The target in assay [3] is HCV E1E2 antigen, isolate UKN4.21.16 (hepatitis C virus, isolate UKN4.21.16). The assay is described as follows: ELISA, Fab on E1E2 antigen.
Assay [4] has as its target HCV E1E2 antigen, isolate UKN2B1.1 (hepatitis C virus, isolate UKN2B1.1). The assay can be described thus: ELISA, Fab on E1E2 antigen.
The target of assay [5] is HCV E1E2 antigen, isolate UKN1B12.16 (hepatitis C virus, isolate UKN1B12.16). The assay is described as follows: ELISA, Fab on E1E2 antigen.
For assay [6], the target named is HCV E1E2 antigen, isolate UKN3A1.28c (hepatitis C virus, isolate UKN3A1.28c). The assay can be described thus: ELISA, Fab on E1E2 antigen.
Assay [7] concerns the target HCV E1E2 antigen, isolate J6E3 (hepatitis C virus, isolate J6E3, UniProt P26660 192-383; P26660 384-750). The assay is described as follows: ELISA, Fab on E1E2 antigen.
The target of assay [8] is HCV E1E2 antigen, isolate UKN5.15.7 (hepatitis C virus, isolate UKN5.15.7). The assay is described as follows: ELISA, Fab on E1E2 antigen.
Assay [9] deals with HCV E1E2 antigen, isolate OH8 (hepatitis C virus, isolate OH8). The assay can be described thus: ELISA, Fab on E1E2 antigen.
Assay [10] deals with T1, HCV E1E2 antigen, isolate JFH (hepatitis C virus, isolate JFH, UniProt Q99IB8 192-383; Q99IB8 384-750).
T1 construct: also called JFH-1
The assay can be described thus: ELISA, Fab on E1E2 antigen.

Assay [11] addresses HCV E1E2 antigen, isolate UKN6.5.8 (hepatitis C virus, isolate UKN6.5.8). The assay is described as follows: ELISA, Fab on E1E2 antigen.

B1: Fab E2 (antibody clone, not the glycoprotein) (Fab, V domains shown)
VH: VGLLEQSGAELKKPGSSVKVSCKPSDGTFRAYTLSWVRQAPGQTLEWLGRIMPTVGITNYAQKFQGRVTISADMSTATAYMQLSSLRPDDTAIYYCAKGPYVGLGEGFSEWGQGTLVTVSS
VL: ELTQSPLSLPVTLGQPASISCRSSQSLVYSDGNTYLIWFQQRPGQSPRRLIYNVSNRDSGVPDRFSGSGSGTDFTLKISRVEAEDLGVYYCMQGAHWPPTFGQGTRLEIKG
As for B1, the binding result in [1] was “binds”.

B2: Fab E3 (Fab, V domains shown)
VH: VGLLEQSGAELKKPGSSVKVSCKPSDGTFRAYTLSWVRQAPGQALEWMGRIMPTVGITNYARKFQGRVTISADMSTATAYMELSSLRSDDTAIYYCAKGPYVGLGEGFSEWGQGTLVTVSS
VL: ELVLTQSPLSLPVTLGQPASISCRSTQSLVYSDGNTYLNWFHQRPGQPPRRLIYKVSNRDSGVPERFSGSGSGTDFALKISRVEADDVGIYYCMQGAHWPPTFGGGTKVEISR
On to B2, for which, in assay [1], the binding result was “binds”.

B3: Fab Q1 (Fab, V domains shown)
VH: VQLLEQSGAEVRKPGASVKVSCKASGYTFTNNGLNWVRQAPGQGLEWMGWISPYNGDTDFAHKFQGRISMTTDTSTNTAYMELRSLRSDDTAVYYCARDRNSAGGTWLFRDPPPGSTFFDSWGQGSLVTVSS
VL: not shown
Take B3: the “OD 450 nm” value stood at 0.48 OD 450 nm in assay [2]; 0.85 OD 450 nm in assay [3]; 0.03 OD 450 nm in assay [4]; 0.38 OD 450 nm in [5]; 1.07 OD 450 nm in assay [6]; 0.19 OD 450 nm in [7]. The “OD 450 nm” value was determined as 0.3 OD 450 nm in assay [8], 0.96 OD 450 nm in assay [9], 0.43 OD 450 nm in [10] and 0.1 OD 450 nm in assay [11].

B4: Fab Q2 (Fab, V domains shown)
VH: VQLLEQSGAEVKKPGASVKVSCKASGYTFTNNGLNWVRQAPGQGLEWMGWISPYNGDTDFAHKFQGRISMTTDTSTNTAYMELRSLRSDDTAVYYCARDRNSAGGTWLFRDPPPGSTFFDSWGQGSLVTVSS
VL: ELTQSPASLSLSPGGSATLACRASRGVNSNLAWYHQKPGQAPRLLIYSASTRATGIPGRFSGSGFGTEFTLTINNLQSDDFGVYYCQQYDDTPQITFGQGTRLDIKR
Consider B4, for which the “OD 450 nm” value in assay [2] is 0.19 OD 450 nm; in assay [3], 0.17 OD 450 nm; in assay [4], 0.15 OD 450 nm; in assay [5] it was 0.21 OD 450 nm; in assay [6], 0.35 OD 450 nm; in [7], 0.25 OD 450 nm. Also, the “OD 450 nm” value in assay [8] came to 0.05 OD 450 nm; in assay [9] it was 0.43 OD 450 nm; in assay [10], 0.18 OD 450 nm; in assay [11] it was 0.16 OD 450 nm.

B5: Fab B4 (Fab, V domains shown)
VH: VQLLEQSGAEVKKPGSSVKVSCRASGSPFSSYTITWVRQAPGQGLEWMGGIILMTGKANYAQKFQGRVTITADRSTTTAYMEMSSPTSDDTAIYYCARDPYVYAGDDVWSLSRWGQGTLVIVSP
VL: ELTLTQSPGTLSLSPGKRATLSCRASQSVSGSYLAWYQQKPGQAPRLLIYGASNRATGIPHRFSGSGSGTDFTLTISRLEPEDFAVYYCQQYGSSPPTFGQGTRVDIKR
As for B5, in assay [1], the binding result is given as “binds”.

B6: Fab B6a (Fab, V domains shown)
VH: VQLLEQSGAEVKKPGSSVKVSCRASGSPYSSYTITWVRQAPGQGLEWMGGIILMTGKANYAQKFQGRVTITADRATATAYMEMSSLTSDDTAIYYCARDPYVYAGDDVWSLSRWGQGTPVTVSS
VL: LTQSPGTLSLSPGERATLSCRASQSVASNYVAWYQQKPGQAPRLLIYGTSYRATGIPGRFSGSGSGTDFTLTISGLEPEDFAVYYCQQYGSSPQTFGQGTKVEIKR
Regarding B6, in [1], the binding result is recorded as “binds”.

B7: Fab B6b (Fab, V domains shown)
VH: VQLLEQSGAEVKKPGSSVKVSCRASGSPYSSYTITWVRQAPGQGLEWMGGIILMTGKANYAQKFQGRVTITADRATATAYMEMSSLTSDDTAIYYCARDPYVYAGDDVWSLSRWGQGTPVTVSS
VL: ELTQSPGTLSLSPGERATLSCRASQSVSRGNLAWYQQKRGQPPRLLIYGASYRATGIPDRFSGSGSGTDFTLTITKLEPEDFAVYYCQQYGHSLAFGQGTKVEIKG
Take B7: the binding result in assay [1] is “binds”.

B8: Fab B6c (Fab, V domains shown)
VH: VQLLEQSGAEVKKPGSSVKVSCRASGSPYSSYTITWVRQAPGQGLEWMGGIILMTGKANYAQKFQGRVTITADRATATAYMEMSSLTSDDTAIYYCARDPYVYAGDDVWSLSRWGQGTPVTVSS
VL: not shown
Take B8: the binding result in [1] is given as “binds”.

B9: Fab P6 (Fab, V domains shown)
VH: EVQLLESGGGVVQPGKSLTVSCAASGFTFSTFTMHWVRQAPGKWLEWVAVISHDGGTEHYADSVTGRFTISRDNSKNTLHMQMNSLRLEDTAVYFCARGGPAYYLYNDVLTGYYNVVGDFWGQGTLVTVSS
VL: ELIQSPGTLFLSSGERATLSCRASQSVSSSNLAWFQHKSGRAPRLLIYGASNRAPDIPDRFSGSGSGTDFTISISRLEPEDFAVYYCQRYGDSPPITFGQGTRLEIKR
Regarding B9, the “OD 450 nm” value in assay [2] came out at 0.21 OD 450 nm; in [3], 0.23 OD 450 nm; in [4] it was 0.13 OD 450 nm; in assay [5], 0.26 OD 450 nm; in [6] it was 0.37 OD 450 nm; in assay [7] it was 0.02 OD 450 nm. Further, the “OD 450 nm” value was 0.08 OD 450 nm in assay [8], 0.46 OD 450 nm in [9], 0 OD 450 nm in assay [10] and 0.12 OD 450 nm in [11].

B10: Fab T1 (Fab, V domains shown)
VH: EVQLLESGGGLVQPGGSLRLSCAASGFTFSRFWMHWVRQAPGKGLVWVARINSDGSSTTYADSVKGRFTISRDNAKNTLYLQMNSLRDEDTAVYFCARGGDSSSPYYYPMDVWGQGTTVAVSS
VL: not shown
With B10, the “OD 450 nm” value was determined as 0 OD 450 nm in assay [2]; 0.08 OD 450 nm in assay [3]; 0 OD 450 nm in [4]; 0 OD 450 nm in assay [5]; 0 OD 450 nm in assay [6]; 0 OD 450 nm in assay [7]. The “OD 450 nm” value in [8] came to 0.07 OD 450 nm; in assay [9], 0.15 OD 450 nm; in assay [10], 0 OD 450 nm; in [11] it was 0.01 OD 450 nm.

B11: Fab S1 (Fab, V domains shown)
VH: VQLLEQSGAEVKKPGTSVKVSCTASGYIFTSFGISWVRQAPGQGLEWMGRIDTYNGKTNYAQKLQGRVTMTTDTYTSTAYMELRSLTSDDTAVYYCARDDCRSSTCYLAQHNWQAYYHDSWGQGTLVTVSS
VL: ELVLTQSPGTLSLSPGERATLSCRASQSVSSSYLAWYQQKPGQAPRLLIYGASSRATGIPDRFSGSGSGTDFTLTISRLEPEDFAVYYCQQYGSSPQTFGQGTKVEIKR
Turning to B11, the “OD 450 nm” value in assay [2] was 0.79 OD 450 nm; in assay [3], 1.12 OD 450 nm; in assay [4], 0.03 OD 450 nm; in assay [5] it was 0.26 OD 450 nm; in assay [6], 0.55 OD 450 nm; in assay [7], 0.07 OD 450 nm. Also, the “OD 450 nm” value was 0.18 OD 450 nm in [8], 1.32 OD 450 nm in [9], 0.21 OD 450 nm in [10] and 0.08 OD 450 nm in [11].

B12: Fab U1 (Fab, V domains shown)
VH: VQLLEQSGPEVKRPGTSVKMSCKISGGASITQAMSWVRQAPGQGLEWMGGITPIFGTVNYAQKILGRVTITADEDTVSLELSSLKSEDTAVYYCAREVNLKTWNLAHPNVFDVWGQGTMLTVSS
VL: ELTQSPSSLSASVGDRVTITCRASQSISSFLNWYQQKPGKAPKLLIYAASSLQSGVPPRFSGSGSGTDFTLTISSLQPEDFATYYCQQSYSTPRTFGQGTKLEIKR
As for B12, the “OD 450 nm” value in [2] was 0.07 OD 450 nm; in [3], 0 OD 450 nm; in assay [4], 0 OD 450 nm; in [5], 0.11 OD 450 nm; in assay [6], 0.11 OD 450 nm; in assay [7] it was 0.08 OD 450 nm. In addition, the “OD 450 nm” value in [8] stood at 0.06 OD 450 nm; in assay [9], 0.26 OD 450 nm; in assay [10] it was 0.07 OD 450 nm; in assay [11], 0.06 OD 450 nm.

B13: Fab B5 (Fab, V domains shown)
VH: EVQLLESGAEVKKPGSSVKVSCRASGSPYSSYTITWVRQAPGQGLEWMGGIILMTGKANYAQKFQGRVTITADRATATAYMEMSSLTSDDTAIYYCARDPYVYAGDDVWSLSRWGQGTPVIVSS
VL: ELTQSPLSLPVIIGQPASISCSSSESLVDSDGNTYLHWFQQRPGQSPRRLIYKVSNRDAGVPDRFSGSGSGTDFTLKISRVEAEDVAVYYCMQATHWPPITFGPGTRLEVKR
On to B13, for which the binding result in assay [1] was “binds”.

B14: Fab R1 (Fab, V domains shown)
VH: VQLLEQSGAEVKKPGASVKVSCKASGYTFSIYGVAWVRQAPGQGLEWMGWISPQNGDTHSPQKFQGRLTMTTDTSTSTAYMELRSLRSDDTAVYFCARDYGVNFGGGSEHNLDYWGRGTRVTVSS
VL: ELTQSPLSLPVTPGEPASISCRSSYSLLHINGYKYLDWYLQRPGQSPQLLIYLGSNRAPGVPDRFSGSGSGTSFTLKISRVEAEDVGVYYCMQSLQAPWTFGQGTKVEMKR
Turning to B14, the “OD 450 nm” value in assay [2] amounted to 0.15 OD 450 nm; in assay [3] it was 0.01 OD 450 nm; in assay [4], 0.02 OD 450 nm; in assay [5], 0.03 OD 450 nm; in [6], 0 OD 450 nm; in assay [7], 0 OD 450 nm. Moreover, the “OD 450 nm” value was found to be 0 OD 450 nm in [8], 0.5 OD 450 nm in [9], 0 OD 450 nm in [10] and 0.05 OD 450 nm in [11].

Source of the values: patent US20110311550A1 (Scripps Research, published 2011).
